Here are results for 7 substances from US8716221B2, “Modified exendins and uses thereof” (priority 2005, dated 2014).

Read-outs that look alike come from different tables or passages of the source. Where no end group is shown, it is not given here. [ ]: non-standard residue; d: D form. code ∗ = not defined here

Data set [1] is described as follows: Test for the stability of the polypeptide (LC-MS purity, pH 8.0, 40° C.). Format: physicochemical. The conditions noted are these: for Purity (%) 0 day: 4 mg/ml. The procedure:
The following method was used to determine the chemical stability of some polypeptides in the present invention.
(§1) 1 mg of each sample was dissolved in a buffer solution, which contains 150 mM sodium chloride and 20 mM phosphate, from which a solution of concentration of 4 mg/ml was prepared and its pH is 8.0. The testing sample solutions were placed in a thermostat of 40° C. LC-MS was used to determine the purity of polypeptide. Correlation between the reduction ratio of the main peak area and time reflects the chemical stability of the polypeptide. Expressed as a percentage, purity is the percentage corresponding to the target peak in the total of all peaks including impurities. Using LC, the main peak was separated from any impurities, and the relative percentages of main peak and impurities at times 0 (before incubation at 40° C. at pH 4.5-8) and after 5, 10 and 15 days were determined. MS was used to identify the main peak as the target molecule. The main peak area plus the peak areas of any impurities gives a total equal to 100%, with relative purity calculated at a certain time (5, 10 or 15 days) against the purity at time 0 compared to the purity before incubation at 40° C. at pH 4.5-8.

Data set [2] is classed as physicochemical. The conditions noted are these: for 0 day Purity (%) / 5 days Purity (%) / 5 days Relative Purity (%) / 10 days Purity (%) / 10 days Relative Purity (%) / 15 days Purity (%) / 15 days Relative Purity (%): pH 4.5, 40° C.; for 5 days Relative Purity (%) / 10 days Relative Purity (%) / 15 days Relative Purity (%): compared with the corresponding sample at 0 day. On the procedure: as §1
(§2) The following method was used to determine the chemical stability of various modified exendins having a sequence identity of at least 90% to SEQ ID no. 17 under acidic/basic conditions. […] Purity was determined by LC-MS as percentage of the target peak in the total of all peaks including impurities as described in example 3.
4 mg Exendin-4 derivative polypeptide (described in Table 2 below) was dissolved in 20 mM sodium buffer (pH 4.5) so as to prepare a solution at concentration of 4 mg/ml. The testing sample solutions were placed in a thermostat setting at 40° C. LC-MS was used to determine the purity of polypeptide. The chemical stability of the polypeptide was expressed as the correlation between the reduction ratio of the main peak area and time and determined as described above.

Data set [3] in a line: Stability of Exendin-4 derivatives under basic conditions (PBS pH 7.4, 40° C., LC-MS purity). Format: physicochemical. The conditions noted are these: for 5 days Relative Purity (%) / 10 days Relative Purity (%): compared with the corresponding sample at 0 day. On the procedure:
as §1, §2
4 mg Exendin-4 derivative polypeptide (described in Table 3 above) was taken and dissolved in PBS buffer (KH2PO4 0.27 g/L, Na2HPO4 1.42 g/L, NaCl 8 g/L and KCl 0.2 g/L, pH 7.4) so as to prepare a solution at concentration of 4 mg/ml. The testing sample solutions were placed in a thermostat setting at 40° C. LC-MS was used to determine the purity of polypeptide. The chemical stability of the polypeptide was expressed as the correlation between the reduction ratio of the main peak area and time.

For another data set, the system named is normal mice. Nature of the data set: Oral glucose tolerance test in normal mice after subcutaneous injection. It counts as in vivo. The conditions noted are these: unit not given. The source says: Polypeptide of SEQ ID NO: 25 was modified with polyethylene glycol of molecular weight of about 40,000 (sample 4 as described in Examples 3 and 4 above).
Where [4] appears, read: first day after s.c. injection, dosage (20).
Where [5] appears, read: first day after s.c. injection, dosage (80).
Setting [6] is: third day after s.c. injection, dosage (20).
The mark [7] stands for this setting: third day after s.c. injection, dosage (80).

In the case of “HdAEGTFTSDL SKQMEEEAVR LFIEWLKNGG PSSGAPPPC-NH2 [Sample 2-1]”, in data set [1], the “stability of the polypeptide (conclusion in words)” value is reported as “not very stable”, the “Purity (%) 0 day” value stood at 98%, the “Purity (%) 5th day” value is reported as 93.1% and the “Purity (%) 10th day” value is on record as 90.4%. Besides, the “Purity (%) 15th day” value in data set [1] is recorded as 88.2%. Further, in data set [2], the “0 day Purity (%)” value was determined as 98.0%, the “5 days Purity (%)” value was 93.8%, the “5 days Relative Purity (%)” value is recorded as 95.71% and the “10 days Purity (%)” value was determined as 89.6%. Besides, in data set [2], the “10 days Relative Purity (%)” value was determined as 91.43%, the “15 days Purity (%)” value came to 86.7% and the “15 days Relative Purity (%)” value turned out to be 88.47%. The main impurity result in data set [2] (stability test, cysteine at C-terminal end) is given as “dimers formed by oxidization of the mercapto-groups”.
As to “HdAEGTFTSDL SKQMEEEAVR LFIEWLKNGG PSSGAPPPC-PEG40K [Sample 4]”, in data set [1], the “stability of the polypeptide (conclusion in words)” value was “very stable”, the “Purity (%) 0 day” value is 99.7%, the “Purity (%) 5th day” value turned out to be 99.4% and the “Purity (%) 10th day” value was found to be 99.0%. Moreover, the “Purity (%) 15th day” value in data set [1] stood at 99.3%. Also, in data set [2], the “stability compared with samples 2-1 and 9-1” value is on record as “even higher stability”; the “0 day Purity (%)” value was determined as 99.7%; the “5 days Purity (%)” value came to 99.4%; the “5 days Relative Purity (%)” value came to 99.70%. Also, in data set [2], the “10 days Purity (%)” value was found to be 99.3%, the “10 days Relative Purity (%)” value worked out at 99.60%, the “15 days Purity (%)” value amounted to 99.0% and the “15 days Relative Purity (%)” value is listed as 99.30%. Moreover, in data set [3], the “0 day Purity (%)” value was determined as 99.7%, the “5 days Purity (%)” value was found to be 99.0%, the “5 days Relative Purity (%)” value is listed as 99.30% and the “10 days Purity (%)” value was 98.2%. Moreover, in data set [3], the “10 days Relative Purity (%)” value is on record as 98.50%. In the data set on normal mice (setting [4]), the “AUC (area under the curve of the blood glucose level)” value (shortened to “AUC”) was found to be 176.4 ± 22.0 mg·h/dL, the “Blood Glucose level 0 min” value turned out to be 116.6 ± 10.8 mg/dL, the “Blood Glucose level 30 min” value worked out at 95.7 ± 9.9 mg/dL and the “Blood Glucose level 60 min” value was 88.9 ± 28.6 mg/dL. In the data set with normal mice (setting [4]), the “Blood Glucose level 120 min” value came out at 65.4 ± 5.1 mg/dL. Further, in the data set with normal mice (setting [5]), the “AUC” value came to 166.6 ± 16.7 mg·h/dL, the “Blood Glucose level 0 min” value amounted to 122.2 ± 9.1 mg/dL, the “Blood Glucose level 30 min” value was 92.1 ± 12.4 mg/dL and the “Blood Glucose level 60 min” value turned out to be 76.7 ± 8.7 mg/dL. In addition, the “Blood Glucose level 120 min” value in the data set with normal mice (setting [5]) was 64.9 ± 7.5 mg/dL. In the data set on normal mice (setting [6]), the “AUC” value amounted to 253.6 ± 24.4 mg·h/dL, the “Blood Glucose level 0 min” value is 96.2 ± 8.6 mg/dL, the “Blood Glucose level 30 min” value amounted to 172.8 ± 33.2 mg/dL and the “Blood Glucose level 60 min” value turned out to be 132.1 ± 12.4 mg/dL. Besides, in the data set on normal mice (setting [6]), the “Blood Glucose level 120 min” value turned out to be 88.3 ± 7.8 mg/dL. In the data set on normal mice (setting [7]), the “AUC” value was determined as 217.0 ± 21.9 mg·h/dL, the “Blood Glucose level 0 min” value turned out to be 89.5 ± 9.3 mg/dL, the “Blood Glucose level 30 min” value worked out at 149.3 ± 32.4 mg/dL and the “Blood Glucose level 60 min” value is 108.6 ± 8.8 mg/dL. Besides, the “Blood Glucose level 120 min” value with normal mice (setting [7]) came to 77.1 ± 8.4 mg/dL.
With “HdAEGTFTTSDL SKQNleEEEAVR LFIEWLKQGG PSSGAPPPC(AM) [Sample 9-2]”, in data set [2], the “0 day Purity (%)” value turned out to be 99.0%, the “5 days Purity (%)” value was 98.9%, the “5 days Relative Purity (%)” value is on record as 99.90% and the “10 days Purity (%)” value was found to be 98.8%. Further, in data set [2], the “10 days Relative Purity (%)” value was 99.80%, the “15 days Purity (%)” value was found to be 98.8% and the “15 days Relative Purity (%)” value is on record as 99.80%. In data set [3], the “0 day Purity (%)” value amounted to 99.0%, the “5 days Purity (%)” value is listed as 98.8%, the “5 days Relative Purity (%)” value worked out at 99.80% and the “10 days Purity (%)” value came to 98.7%. Besides, in data set [3], the “10 days Relative Purity (%)” value came out at 99.70%.
On to “HGEGTFTSDLSKQMEEEAVRLFIEWLKQGGPSSGAPPPK* [Sample 5]”, for which, in data set [2], the “0 day Purity (%)” value is listed as 98.3%, the “5 days Purity (%)” value was 96.3%, the “5 days Relative Purity (%)” value is listed as 97.97% and the “10 days Purity (%)” value was found to be 95.1%. Further, in data set [2], the “10 days Relative Purity (%)” value is 96.74%, the “15 days Purity (%)” value is reported as 94.1% and the “15 days Relative Purity (%)” value was determined as 95.73%. Besides, in data set [3], the “0 day Purity (%)” value is listed as 98.3%, the “5 days Purity (%)” value was determined as 95.7%, the “5 days Relative Purity (%)” value is listed as 97.36% and the “10 days Purity (%)” value was found to be 94.2%. In addition, the “10 days Relative Purity (%)” value in data set [3] worked out at 95.83%.
As to “HdAEGTFTSDL SKQNleEEEAVR LFIEWLKQGG PSSGAPPPS-NH2 [Sample 3]”, in data set [1], the “Purity (%) 0 day” value came out at 98.9%, the “Purity (%) 5th day” value came to 98.8%, the “Purity (%) 10th day” value was found to be 98.8% and the “Purity (%) 15th day” value is on record as 98.8%. Besides, in data set [2], the “0 day Purity (%)” value was determined as 98.9%, the “5 days Purity (%)” value is given as 98.7%, the “5 days Relative Purity (%)” value is given as 99.80% and the “10 days Purity (%)” value worked out at 98.7%. For the same substance, in data set [2], the “10 days Relative Purity (%)” value came to 99.80%, the “15 days Purity (%)” value is listed as 98.6% and the “15 days Relative Purity (%)” value stood at 99.70%. In data set [3], the “0 day Purity (%)” value was found to be 98.9%, the “5 days Purity (%)” value was 98.6%, the “5 days Relative Purity (%)” value was determined as 99.70% and the “10 days Purity (%)” value came out at 98.5%. The “10 days Relative Purity (%)” value in data set [3] turned out to be 99.60%.
Turning to “HdAEGTFTTSDL SKQNleEEEAVR LFIEWLKQGG PSSGAPPPC-PEG40K [Sample 13]”, in data set [2], the “stability compared with samples 2-1 and 9-1” value is on record as “even higher stability”; the “0 day Purity (%)” value is recorded as 99.8%; the “5 days Purity (%)” value came out at 99.6%; the “5 days Relative Purity (%)” value is recorded as 99.80%. Further, in data set [2], the “10 days Purity (%)” value is reported as 99.7%, the “10 days Relative Purity (%)” value was 99.90%, the “15 days Purity (%)” value was determined as 99.5% and the “15 days Relative Purity (%)” value is 99.70%. For the same substance, in data set [3], the “0 day Purity (%)” value came to 99.8%, the “5 days Purity (%)” value turned out to be 99.3%, the “5 days Relative Purity (%)” value turned out to be 99.50% and the “10 days Purity (%)” value was 98.9%. In data set [3], the “10 days Relative Purity (%)” value came to 99.10%.
For “HdAEGTFTSDL SKQMEEEAVR LFIEWLVKGG PSSGAPPPK* (H[dA]EGTFTSDLSKQMEEEAVRLFIEWLVKGGPSSGAPPPK(code ∗); reading uncertain; also: C-terminal modification (*)) [Sample 11]”, in data set [2], the “0 day Purity (%)” value came to 98.3%, the “5 days Purity (%)” value is listed as 96.7%, the “5 days Relative Purity (%)” value is given as 98.37% and the “10 days Purity (%)” value was 95.9%. Besides, in data set [2], the “10 days Relative Purity (%)” value stood at 97.56%, the “15 days Purity (%)” value was 94.8% and the “15 days Relative Purity (%)” value came out at 96.44%. Besides, in data set [3], the “0 day Purity (%)” value is 98.3%, the “5 days Purity (%)” value was 97.1%, the “5 days Relative Purity (%)” value was 98.78% and the “10 days Purity (%)” value is reported as 96.4%. Further, the “10 days Relative Purity (%)” value in data set [3] is 98.07%.
